Sequences and labels used below:
T1: CD20 (human, UniProt P11836 1-297)
T1 construct: whole, on cells; 2H7 is called murine anti-human CD20; also called CD20 presented on WIL-2S cells; CD20 on Ramos, BJAB, SU-DHL-6 and DoHH2 B cells
T1 sequence (looked up): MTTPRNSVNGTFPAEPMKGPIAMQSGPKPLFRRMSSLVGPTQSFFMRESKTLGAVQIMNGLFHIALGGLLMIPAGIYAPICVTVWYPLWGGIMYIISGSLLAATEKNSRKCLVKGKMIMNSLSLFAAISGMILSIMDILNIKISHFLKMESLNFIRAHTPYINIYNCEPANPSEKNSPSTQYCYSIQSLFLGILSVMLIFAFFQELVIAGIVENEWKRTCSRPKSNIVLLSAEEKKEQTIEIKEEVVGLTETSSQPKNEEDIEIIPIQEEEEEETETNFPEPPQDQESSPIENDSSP

B1: 2H7-sss-hIgG P238S/P331S-H2-2e12 VHVL (bispecific antibody)
chain: QIVLSQSPAILSASPGEKVTMTCRASSSVSYMHWYQQKPGSSPKPWIYAPSNLASGVPARFSGSGSGTSYSLTISRVEAEDAATYYCQQWSFNPPTFGAGTKLELKDGGGSGGGGSGGGGSSQAYLQQSGAESVRPGASVKMSCKASGYTFTSYNMHWVKQTPRQGLEWIGAIYPGNGDTSYNQKFKGKATLTVDKSSSTAYMQLSSLTSEDSAVYFCARVVYYSNSYWYFDVWGTGTTVTVSEPKSSDKTHTSPPSPAPELLGGSSVFLFPPKPKDTLMISRTPEVTCVVVDVSHEDPEVKFNWYVDGVEVHNAKTKPREEQYNSTYRVVSVLTVLHQDWLNGKEYKCKVSNKALPASIEKTISKAKGQPREPQVYTLPPSRDELTKNQVSLTCLVKGFYPSDIAVEWESNGQPENNYKTTPPVLDSDGSFFLYSKLTVDKSRWQQGNVFSCSVMHEALHNHYTQKSLSLSPGKGGGGSGNSQVQLKESGPGLVAPSQSLSITCTVSGFSLTGYGVNWVRQPPGKGLEWLGMIWGDGSTDYNSALKSRLSITKDNSKSQVFLKMNSLQTDDTARYYCARDGYSNFHYYVMDYWGQGTSVTVSSGGGGSGGGGSGGGGSGGGGSDIVLTQSPASLAVSLGQRATISCRASESVEYYVTSLMQWYQQKPGQPPKLLISAASNVESGVPARFSGSGSGTDFSLNIHPVEEDDIAMYFCQQSRKVPWTFGGGTKLEIKR
notes: Assembled from modules as m11; also called 2H7-sss-hIgG-H2-2e12 HL
B2: 2H7-sss-hIgG-L6-2e12 (H6 linker, 2e12 VL-VH) (bispecific antibody)
chain (part 1 of 2): QIVLSQSPAILSASPGEKVTMTCRASSSVSYMHWYQQKPGSSPKPWIYAPSNLASGVPARFSGSGSGTSYSLTISRVEAEDAATYYCQQWSFNPPTFGAGTKLELKDGGGSGGGGSGGGGSSQAYLQQSGAESVRPGASVKMSCKASGYTFTSYNMHWVKQTPRQGLEWIGAIYPGNGDTSYNQKFKGKATLTVDKSSSTAYMQLSSLTSEDSAVYFCARVVYYSNSYWYFDVWGTGTTVTVSEPKSSDKTHTSPPSP
chain (part 2 of 2): GGGGSGGGGSGGGGSGNSDIVLTQSPASLAVSLGQRATISCRASESVEYYVTSLMQWYQQKPGQPPKLLISAASNVESGVPARFSGSGSGTDFSLNIHPVEEDDIAMYFCQQSRKVPWTFGGGTKLEIKRGGGGSGGGGSGGGGSQVQLKESGPGLVAPSQSLSITCTVSGFSLTGYGVNWVRQPPGKGLEWLGMIWGDGSTDYNSALKSRLSITKDNSKSQVFLKMNSLQTDDTARYYCARDGYSNFHYYVMDYWGQGTSVTVSS
notes: Assembled from modules as m10; not shown: human IgG1 CH2-CH3
B3: 2H7-sss-hIgG-L4-2e12 (H4 linker, 2e12 VL-VH) (bispecific antibody)
chain (part 1 of 2): B2 chain (part 1 of 2)
chain (part 2 of 2): GGGGSGGGGSGNSDIVLTQSPASLAVSLGQRATISCRASESVEYYVTSLMQWYQQKPGQPPKLLISAASNVESGVPARFSGSGSGTDFSLNIHPVEEDDIAMYFCQQSRKVPWTFGGGTKLEIKRGGGGSGGGGSGGGGSQVQLKESGPGLVAPSQSLSITCTVSGFSLTGYGVNWVRQPPGKGLEWLGMIWGDGSTDYNSALKSRLSITKDNSKSQVFLKMNSLQTDDTARYYCARDGYSNFHYYVMDYWGQGTSVTVSS
notes: as for B2
B4: 2H7-sss-hIgG-L5-2e12 (H5 linker, 2e12 VL-VH) (bispecific antibody)
chain (part 1 of 2): B2 chain (part 1 of 2)
chain (part 2 of 2): NYGGGGSGGGGSGNSDIVLTQSPASLAVSLGQRATISCRASESVEYYVTSLMQWYQQKPGQPPKLLISAASNVESGVPARFSGSGSGTDFSLNIHPVEEDDIAMYFCQQSRKVPWTFGGGTKLEIKRGGGGSGGGGSGGGGSQVQLKESGPGLVAPSQSLSITCTVSGFSLTGYGVNWVRQPPGKGLEWLGMIWGDGSTDYNSALKSRLSITKDNSKSQVFLKMNSLQTDDTARYYCARDGYSNFHYYVMDYWGQGTSVTVSS
notes: as for B2
B5: 2H7-sss-hIgG P238S/P331S-H1-2e12 VHVL (bispecific antibody)
chain: QIVLSQSPAILSASPGEKVTMTCRASSSVSYMHWYQQKPGSSPKPWIYAPSNLASGVPARFSGSGSGTSYSLTISRVEAEDAATYYCQQWSFNPPTFGAGTKLELKDGGGSGGGGSGGGGSSQAYLQQSGAESVRPGASVKMSCKASGYTFTSYNMHWVKQTPRQGLEWIGAIYPGNGDTSYNQKFKGKATLTVDKSSSTAYMQLSSLTSEDSAVYFCARVVYYSNSYWYFDVWGTGTTVTVSEPKSSDKTHTSPPSPAPELLGGSSVFLFPPKPKDTLMISRTPEVTCVVVDVSHEDPEVKFNWYVDGVEVHNAKTKPREEQYNSTYRVVSVLTVLHQDWLNGKEYKCKVSNKALPASIEKTISKAKGQPREPQVYTLPPSRDELTKNQVSLTCLVKGFYPSDIAVEWESNGQPENNYKTTPPVLDSDGSFFLYSKLTVDKSRWQQGNVFSCSVMHEALHNHYTQKSLSLSPGKNSQVQLKESGPGLVAPSQSLSITCTVSGFSLTGYGVNWVRQPPGKGLEWLGMIWGDGSTDYNSALKSRLSITKDNSKSQVFLKMNSLQTDDTARYYCARDGYSNFHYYVMDYWGQGTSVTVSSGGGGSGGGGSGGGGSGGGGSDIVLTQSPASLAVSLGQRATISCRASESVEYYVTSLMQWYQQKPGQPPKLLISAASNVESGVPARFSGSGSGTDFSLNIHPVEEDDIAMYFCQQSRKVPWTFGGGTKLEIKR
notes: Assembled from modules as m11; also called 2H7-sss-hIgG-H1-2e12 HL; TRU015-sss-IgG-H1-2e12 HL
B6: 2H7-sss-hIgG P238S/P331S-H5-2e12 VHVL (bispecific antibody)
chain: QIVLSQSPAILSASPGEKVTMTCRASSSVSYMHWYQQKPGSSPKPWIYAPSNLASGVPARFSGSGSGTSYSLTISRVEAEDAATYYCQQWSFNPPTFGAGTKLELKDGGGSGGGGSGGGGSSQAYLQQSGAESVRPGASVKMSCKASGYTFTSYNMHWVKQTPRQGLEWIGAIYPGNGDTSYNQKFKGKATLTVDKSSSTAYMQLSSLTSEDSAVYFCARVVYYSNSYWYFDVWGTGTTVTVSEPKSSDKTHTSPPSPAPELLGGSSVFLFPPKPKDTLMISRTPEVTCVVVDVSHEDPEVKFNWYVDGVEVHNAKTKPREEQYNSTYRVVSVLTVLHQDWLNGKEYKCKVSNKALPASIEKTISKAKGQPREPQVYTLPPSRDELTKNQVSLTCLVKGFYPSDIAVEWESNGQPENNYKTTPPVLDSDGSFFLYSKLTVDKSRWQQGNVFSCSVMHEALHNHYTQKSLSLSPGKNYGGGGSGGGGSGNSQVQLKESGPGLVAPSQSLSITCTVSGFSLTGYGVNWVRQPPGKGLEWLGMIWGDGSTDYNSALKSRLSITKDNSKSQVFLKMNSLQTDDTARYYCARDGYSNFHYYVMDYWGQGTSVTVSSGGGGSGGGGSGGGGSGGGGSDIVLTQSPASLAVSLGQRATISCRASESVEYYVTSLMQWYQQKPGQPPKLLISAASNVESGVPARFSGSGSGTDFSLNIHPVEEDDIAMYFCQQSRKVPWTFGGGTKLEIKR
notes: Assembled from modules as m11; also called 2H7-sss-hIgG-H5-2e12 HL
B7: 2H7-sss-hIgG P238S/P331S-H4-2e12 VHVL (bispecific antibody)
chain: QIVLSQSPAILSASPGEKVTMTCRASSSVSYMHWYQQKPGSSPKPWIYAPSNLASGVPARFSGSGSGTSYSLTISRVEAEDAATYYCQQWSFNPPTFGAGTKLELKDGGGSGGGGSGGGGSSQAYLQQSGAESVRPGASVKMSCKASGYTFTSYNMHWVKQTPRQGLEWIGAIYPGNGDTSYNQKFKGKATLTVDKSSSTAYMQLSSLTSEDSAVYFCARVVYYSNSYWYFDVWGTGTTVTVSEPKSSDKTHTSPPSPAPELLGGSSVFLFPPKPKDTLMISRTPEVTCVVVDVSHEDPEVKFNWYVDGVEVHNAKTKPREEQYNSTYRVVSVLTVLHQDWLNGKEYKCKVSNKALPASIEKTISKAKGQPREPQVYTLPPSRDELTKNQVSLTCLVKGFYPSDIAVEWESNGQPENNYKTTPPVLDSDGSFFLYSKLTVDKSRWQQGNVFSCSVMHEALHNHYTQKSLSLSPGKGGGGSGGGGSGNSQVQLKESGPGLVAPSQSLSITCTVSGFSLTGYGVNWVRQPPGKGLEWLGMIWGDGSTDYNSALKSRLSITKDNSKSQVFLKMNSLQTDDTARYYCARDGYSNFHYYVMDYWGQGTSVTVSSGGGGSGGGGSGGGGSGGGGSDIVLTQSPASLAVSLGQRATISCRASESVEYYVTSLMQWYQQKPGQPPKLLISAASNVESGVPARFSGSGSGTDFSLNIHPVEEDDIAMYFCQQSRKVPWTFGGGTKLEIKR
notes: Assembled from modules as m11; also called 2H7-sss-hIgG-H4-2e12 HL

The target of this experiment is T1, CD20. The experiment is described as follows: flow cytometry on WIL2-S cells (CD20), protein A purified protein at 0.72 ug/ml, FITC goat anti-human IgG. As to the method: “L1-L6” refers to the 2H7-sss-hIgG-Lx-2e12 molecules where […] represents the L1-L6 linkers and the 2e12 V regions in the orientation of VL-VH. All the molecules were tested at a concentration of 0.72 μg/ml, and the binding detected using FITC conjugated goat anti-human IgG at 1:100.
As for B1, the binding result is “binds”.

For the molecule B2, the binding result is listed as “binds”.

Regarding B3, the binding result is reported as “binds”. Then B4, with “binds”; and B5, with “binds”.

B6: the binding result was “binds”. Then B7, with “binds”.
